This is an account of results in the emibetuzumab library of Makowski et al. (2022).

B1: VH:VL chains; a variant is named by its letters at X, in order (parent)
chain 1: QVQLVQSGAEVKKPGASVKVSCKASGYTFTDYXMHWVRQAPGQGLEWMGXVNPNXXXTTYNQKFEGRVTMTTDTSTSTAYMELRSLRSDDTAVYYCARXNXLDXWGQGTTVTVSS
chain 2: DIQMTQSPSSLSASVGDRVTITCSVSSSVSSIYLHWYQQKPGKAPKLLIYSTSNLASGVPSRFSGSGSGTDFTLTISSLQPEDFATYYCQVYSGYPLTFGGGTKVEIK

The variants in the data set derive from B1. Description: yeast display scFab, FACS + sequencing. In outline: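 Heavy-chain CDR mutant scFab yeast surface library, FACS-sorted after labelling with biotinylated ovalbumin (260 μg/mL in PBSB, 3 h, room temperature) or soluble membrane proteins (130 μg/mL, 20 min on ice), plus anti-Myc. Gates collected the top 25% and bottom 10% of binders, and samples from two replicates were deep sequenced. Non-specific binding call: a sequence was positive if found in ≥3 of 4 positive samples (membrane protein and ovalbumin pooled) and no negatives, and negative by the converse rule.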
Take SKAENAWV: the non-specific binding call was “binds”.
YRKESAVY: the non-specific binding call was “binds”.
Regarding DGGRSAVF, the non-specific binding call was “no binding”.
Next, YAGRGFGA: “binds”.
For the variant YRKRSVVF chain 1 S115F, the non-specific binding call is “binds”.
Turning to YRGRDALV, the non-specific binding call is recorded as “binds”.
YKGEGYGV: the non-specific binding call is on record as “binds”.
With YRGAGAWA, the non-specific binding call was “binds”.
For DTTRGAVA, the non-specific binding call is “no binding”.
For the variant YAREGSGA, the non-specific binding call is listed as “binds”.
Consider YRERSSLD, for which the non-specific binding call is given as “binds”.
With YRGGGYLV, the non-specific binding call was “no binding”.
Turning to YAGGGDWA, the non-specific binding call is “no binding”.
For the variant SKAKGSGV, the non-specific binding call is recorded as “binds”.
YKGRGALS: the non-specific binding call is reported as “binds”.
Regarding AREGDAGD, the non-specific binding call is on record as “no binding”.
Then FGAATDGV, with “binds”.
Take YEKGGAGD: the non-specific binding call was “no binding”.
Regarding YRTGGSLD, the non-specific binding call is listed as “binds”.
For the variant SAGRGYGD, the non-specific binding call is on record as “binds”.
Turning to DTTKGDVA, the non-specific binding call is recorded as “no binding”.
On to DKGGGDVA, for which the non-specific binding call is recorded as “no binding”.
On to FRRTDFVA chain 1 C22Y, for which the non-specific binding call was “binds”.
For the variant VATTDSVD, the non-specific binding call was “no binding”.
In the case of VKEGGSAD, the non-specific binding call was “binds”.
Next, YRRGSAVY: “binds”; FRARGAAY: “binds”; YEGGADVA: “no binding”.
For the variant DRRRGSGA, the non-specific binding call is listed as “binds”.
As for YKAEDVGD, the non-specific binding call is given as “binds”.
Then YRGAGAGS, with “binds”; and YRGAGAGV, with “binds”.
In the case of YKRAAYGD, the non-specific binding call is listed as “binds”.
Consider SKERGDVA, for which the non-specific binding call is reported as “no binding”.
For ATGEGDGV, the non-specific binding call is “no binding”.
With SKGRGAGS, the non-specific binding call is listed as “binds”.
For DEGGTDGY, the non-specific binding call is recorded as “no binding”.
Then VTGGDSWF, with “no binding”; and DAEESDGA, with “no binding”; and AARADDGV, with “no binding”.
Then YKRESAGY, with “binds”.
In the case of FRRGGAAS, the non-specific binding call was “binds”.
For DTREGDGA, the non-specific binding call is reported as “no binding”.
Then YTARGVSF, with “binds”.
FRGGGSGV: the non-specific binding call was “binds”.
Consider FRGRDFAD, for which the non-specific binding call was “binds”.
With YRRGSAGF, the non-specific binding call is on record as “binds”.
Then YRGGDAAF, with “no binding”; and YRRRGAGA, with “binds”; and VTERGSLD, with “no binding”.
In the case of FRGKGSWD, the non-specific binding call is given as “binds”.
On to DRAGDSSA, for which the non-specific binding call was “no binding”.
Consider DGGRGDAF, for which the non-specific binding call is “no binding”.
Consider YRGRDASF, for which the non-specific binding call is recorded as “no binding”.
Consider FKKGSSGV, for which the non-specific binding call is reported as “binds”.
For VAATASWV, the non-specific binding call was “no binding”.
VEREADWF: the non-specific binding call is recorded as “no binding”.
Regarding YRARGSAD, the non-specific binding call was “binds”.
For the variant FRGRSYVD, the non-specific binding call is listed as “binds”.
As to YETKGDWD, the non-specific binding call is on record as “no binding”.
Next, SEARSAGV: “no binding”; YRKGTAGD: “binds”; YEGGGDVA: “no binding”.
Next, SEKKSAGA: “no binding”.
Then FRGRGVGA, with “binds”; and AARADDWD, with “no binding”; and YRRRGSGA, with “binds”.
VRARGVVA: the non-specific binding call was “binds”.
As for YKGAGSAD, the non-specific binding call was “binds”.
Turning to VGGTSSSV, the non-specific binding call is listed as “no binding”.
Regarding YKARGSGA, the non-specific binding call is listed as “binds”.
Then VEGGGDVV, with “no binding”.
For the variant YRAGASAV, the non-specific binding call was “binds”.
For the variant DKEGGDGV, the non-specific binding call was “no binding”.
Next, FRGRGFSV: “binds”; YRRRGSWA: “binds”; VGEGGDAY: “no binding”.
Then YRTGAALS, with “binds”; and YRTEDVGA, with “binds”; and DTTGSDAV, with “no binding”.
Regarding SEGRGDVY, the non-specific binding call is “no binding”.
VTEGDSGV: the non-specific binding call is recorded as “no binding”.
Next, SAEKDDGS: “no binding”; YRRGSVGA: “binds”; SKRKSSGA: “binds”.
Next, FRTRDALD: “binds”; YKGTDAWY: “no binding”.
For the variant YRGRSFAV, the non-specific binding call was “binds”.
As for DEGGTSLD, the non-specific binding call was “no binding”.
Next, FRAGGAGV: “binds”.
As for YKGRGSLA, the non-specific binding call was “binds”.
As to DATEDDSA, the non-specific binding call was “no binding”.
As for YRRGDSLY, the non-specific binding call is on record as “binds”.
For YRERGSWV, the non-specific binding call is “binds”.
For the variant YRGEAFLY, the non-specific binding call is “binds”.
As to YRARGVVV, the non-specific binding call is listed as “binds”.
With VTGEDSLD, the non-specific binding call is on record as “no binding”.
With YRKGAALA, the non-specific binding call is on record as “binds”.
On to YEGRGDVA, for which the non-specific binding call is on record as “no binding”.
Take YARRDVGA: the non-specific binding call was “binds”.
Next, FTGRAYGF: “binds”; YGTATFLV: “binds”.
For SRGRGSGA, the non-specific binding call is reported as “binds”.
As to ARAGGAAA, the non-specific binding call was “binds”.
On to YRKEAAAA, for which the non-specific binding call is reported as “binds”.
In the case of FKGRSASY, the non-specific binding call is reported as “binds”.
Regarding YRGKGSGS, the non-specific binding call is “binds”.
With YAGTGDLV, the non-specific binding call is on record as “no binding”.
Take YRKRGSLY: the non-specific binding call is reported as “binds”.
As to YRRGGSWD, the non-specific binding call was “binds”.
Next, DATGGDVF: “no binding”.
On to FRAGSSWD, for which the non-specific binding call is on record as “binds”.
SEARSDLA: the non-specific binding call is on record as “no binding”.
SEARSDLY: the non-specific binding call was “no binding”.
Then VKREAVGV, with “binds”; and FRGRSSAA, with “binds”; and SKTKSDGA, with “no binding”.
VKARNDLV: the non-specific binding call is reported as “no binding”.
